Experimental findings from paper PMC10693628, “Novel WYL domain-containing transcriptional activator acts in response to genotoxic stress in rapidly growing mycobacteria” (Communications Biology, 2023) are described below.

As usually defined, the stoichiometry N is the number of molecules, sites or subunits per partner or assembly. By Kd is commonly meant the free concentration of one partner at which half of the binding sites on the other are occupied at equilibrium, for simple one-to-one binding.

Series [1] addresses MSMEG_1356 (DUF664 family protein, DinB/YfiT-like putative metalloenzymes superfamily) (Mycobacterium smegmatis) (UniProt A0QS54). In words: SEC; analytical gel filtration, Superdex 200 Increase 10/300 GL, buffer GF (50 mM HEPES-KOH pH 7.0, 150 mM NaCl, 0.5 mM TCEP, 1 mM EDTA); SiwR 40 uM protomer, MSMEG_1357 or MSMEG_1356 100 uM protomer; incubated at 37 °C for 20 min, run at 0.5 mL/min at room temperature. A general note: Size exclusion chromatography separates by hydrodynamic size, large species first.

The target is the same in series [2]. In words: SEC; gel filtration step of the purification, Superdex 75 10/300 GL 24 mL, after dialysis against buffer D (50 mM HEPES-KOH pH 7.0, 150 mM NaCl, 0.5 mM TCEP).
Series [3] has as its target Sumo-SiwR (His6-TEV-Sumo-linker fused to the N-terminus of SiwR, stress-involved WYL domain-containing regulator, MSMEG_1359) (Mycobacterium smegmatis) (UniProt A0QS56). Put plainly: SEC; analytical gel filtration, Superdex 200 Increase 10/300 GL, buffer GF (50 mM HEPES-KOH pH 7.0, 150 mM NaCl, 0.5 mM TCEP, 1 mM EDTA); SiwR 40 uM protomer, MSMEG_1357 or MSMEG_1356 100 uM protomer; incubated at 37 °C for 20 min, run at 0.5 mL/min at room temperature.

Series [4] concerns the target T1, Sumo-SiwR (Mycobacterium smegmatis, UniProt A0QS56 1-320).
T1 sequence: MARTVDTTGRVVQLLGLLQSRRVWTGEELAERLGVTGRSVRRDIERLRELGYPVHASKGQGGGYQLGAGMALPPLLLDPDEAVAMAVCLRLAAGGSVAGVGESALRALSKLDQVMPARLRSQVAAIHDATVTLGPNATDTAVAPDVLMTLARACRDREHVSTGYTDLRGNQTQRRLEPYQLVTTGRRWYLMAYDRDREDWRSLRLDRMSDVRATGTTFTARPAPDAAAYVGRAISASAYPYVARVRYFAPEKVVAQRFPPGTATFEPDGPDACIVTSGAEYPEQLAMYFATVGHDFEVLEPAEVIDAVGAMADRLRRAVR
In words: EMSA; EMSA: 5 mM HEPES-KOH pH 7.0, 30 mM NaCl, 2.5% Ficoll 400K, 1% glycerol, 5 nM probe (10 nM in Fig. 2a legend), 37 °C 15 min; anisotropy: 5 mM HEPES-KOH pH 7, 30. The conditions noted are these: protein: recombinant; tags: His6-TEV-Sumo N-terminal fusion; chain copies: 2; label: 5'-FAM on strand 1; blunt. On the technique in general: A gel shift assay detects complexes by their altered migration in electrophoresis.

In series [5] the target is T1, Sumo-SiwR. Put plainly: fluorescence anisotropy; EMSA: 5 mM HEPES-KOH pH 7.0, 30 mM NaCl, 2.5% Ficoll 400K, 1% glycerol, 5 nM probe (10 nM in Fig. 2a legend), 37 °C 15 min; anisotropy: 5 mM HEPES-KOH pH 7, 30. Conditions: protein: recombinant, tags: His6-TEV-Sumo N-terminal fusion, chain copies: 2. (In general: Polarisation of emitted light reports the rotation of a fluorescent probe.)

Series [6] concerns the molecule itself. In words: SEC; analytical gel filtration, Superdex 200 Increase 10/300 GL, buffer GF (50 mM HEPES-KOH pH 7.0, 150 mM NaCl, 0.5 mM TCEP, 1 mM EDTA); SiwR 40 uM protomer, MSMEG_1357 or MSMEG_1356 100 uM protomer; incubated at 37 °C for 20 min, run at 0.5 mL/min at room temperature.
Series [7] deals with T2, Sumo-SiwR R204A-R207A (Mycobacterium smegmatis, UniProt A0QS56 1-320, R204A;R207A).
T2 sequence: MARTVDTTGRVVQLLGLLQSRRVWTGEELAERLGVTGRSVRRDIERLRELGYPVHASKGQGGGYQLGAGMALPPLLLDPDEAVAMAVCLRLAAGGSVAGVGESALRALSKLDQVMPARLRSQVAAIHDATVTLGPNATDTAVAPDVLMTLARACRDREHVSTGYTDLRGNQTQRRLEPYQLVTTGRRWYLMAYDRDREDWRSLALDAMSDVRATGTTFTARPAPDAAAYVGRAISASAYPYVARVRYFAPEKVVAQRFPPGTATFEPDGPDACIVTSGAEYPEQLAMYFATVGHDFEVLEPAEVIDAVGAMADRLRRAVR
Put plainly: fluorescence anisotropy; EMSA: 5 mM HEPES-KOH pH 7.0, 30 mM NaCl, 2.5% Ficoll 400K, 1% glycerol, 5 nM probe (10 nM in Fig. 2a legend), 37 °C 15 min; anisotropy: 5 mM HEPES-KOH pH 7, 30. The conditions noted are these: protein: recombinant; tags: His6-TEV-Sumo N-terminal fusion; chain copies: 2; label: FAM.

In series [8] the target is T2, Sumo-SiwR R204A-R207A. In words: EMSA; comparable to wild type; EMSA: 5 mM HEPES-KOH pH 7.0, 30 mM NaCl, 2.5% Ficoll 400K, 1% glycerol, 5 nM probe (10 nM in Fig. 2a legend), 37 °C 15 min; anisotropy: 5 mM HEPES-KOH pH 7, 30. The conditions noted are these: protein: recombinant; tags: His6-TEV-Sumo N-terminal fusion; chain copies: 2; label: 5'-FAM on strand 2; blunt.
Series [9] has as its target T1, Sumo-SiwR. Put plainly: fluorescence anisotropy; Kd for SiwR dimer; EMSA: 5 mM HEPES-KOH pH 7.0, 30 mM NaCl, 2.5% Ficoll 400K, 1% glycerol, 5 nM probe (10 nM in Fig. 2a legend), 37 °C 15 min; anisotropy: 5 mM HEPES-KOH pH 7, 30. The conditions noted are these: protein: recombinant; tags: His6-TEV-Sumo N-terminal fusion; chain copies: 2; label: 5'-FAM on strand 2; blunt.

Regarding “MSMEG_1356 (DUF664 family protein, DinB/YfiT-like putative metalloenzymes superfamily) (from UniProt A0QS54 1-203) (natural protein)”, the stoichiometry N in [1] and in series [2] was 2 in each case.
With “Sumo-SiwR (His6-TEV-Sumo-linker fused to the N-terminus of SiwR, stress-involved WYL domain-containing regulator, MSMEG_1359) (from UniProt A0QS56 1-320) (natural protein)”, the stoichiometry N in series [3] came out at 2.

B1: fragment d (dsDNA)
DNA 1: GGCATATAGGACAGTTCCGGTCCTAAAAGT
DNA 2: ACTTTTAGGACCGGAACTGTCCTATATGCC
With B1, the binding result in the series with Sumo-SiwR [4] was “binds”.

B2: 5' tailed DNA (dsDNA)
DNA 1: CGTCAGTCCAGT
DNA 2: GTCAGCAGCCTAACTGGACTGACG
With B2, in the series with Sumo-SiwR [5] (label: 5'-FAM on strand 1, 12 bp duplex, 5' overhang 12 nt on strand 2), the Kd worked out at 0.306 µM.
Regarding CGUCAGUCCAGU (ssRNA) [12-nt ssRNA], the binding result with Sumo-SiwR [5] was “no binding”.

B3: fragment c (dsDNA)
DNA 1: TGACAGGCATATAGGACAGTTCCGGTCCTAAAAGTGCGGC
DNA 2: GCCGCACTTTTAGGACCGGAACTGTCCTATATGCCTGTCA
As to B3, in the series with Sumo-SiwR [4], the binding result was “binds”.

B4: fragment a (dsDNA)
DNA 1: GTGACCCACCCTGACAGGCATATAGGACAGT
DNA 2: ACTGTCCTATATGCCTGTCAGGGTGGGTCAC
For B4, the binding result in the series with Sumo-SiwR [4] is recorded as “no binding”.
Consider CGTCAGTCCAGT (ssDNA, 8-oxoguanine at position 6) [12-nt ssDNA 8-oxoG], for which, in the series with Sumo-SiwR [5] (label: 5'-FAM), the Kd was determined as 0.227 µM.

B5: MSMEG_1357 (DinB_2 family protein, DinB/YfiT-like putative metalloenzymes superfamily) (natural protein, Mycobacterium smegmatis, UniProt A0QS55 1-175, looked up)
chain: MDIDLIADQLDFHWTHQLRPRLDGLTDDEYFWQPVPGCWTVHADGSIDFSYPEPQPTPFTTIAWRLAHVIVGVLAMRNHSHFGGPPADYQTWPYATDAKTALEQLDDAHRNWITGVRALSEDDLQRPVGPAEGPWADHPMSELVLHINREVIHHGAEIACIRDLYAHTNNTAEEN
notes: MSMEG_1357, DinB_2 family (pfam12867) protein of Mycobacterium smegmatis; expressed from a pET21-His6-TEV-MSMEG_1357 plasmid; The construct name puts His6-TEV before the protein; No TEV cleavage is described; also called His6-TEV-MSMEG_1357
Turning to B5, in [6], the “stoichiometry N” value was 2.
For the molecule CGTCAGTCCAGT (ssDNA) [12-nt ssDNA], in the series with Sumo-SiwR [5] (label: 5'-FAM), the Kd is 0.178 µM.

B6: 3' tailed DNA (dsDNA)
DNA 1: GCAGTCAGGTCAATCCGACGACTG
DNA 2: TGACCTGACTGC
In the case of B6, the Kd in the series with Sumo-SiwR [5] (label: FAM on strand 1, 12 bp duplex, 3' overhang 12 nt on strand 1) was determined as 0.702 µM.
As to TTTTTTTTTTTTTTTTTTTT (ssDNA) [polyT20], the binding result in the series with Sumo-SiwR R204A-R207A [7] is recorded as “no binding”. The Kd with Sumo-SiwR [5] (label: FAM) was found to be 0.182 µM.

B7: fragment b (dsDNA)
DNA 1: TCCGGTCCTAAAAGTGCGGCAGACTTGTCGC
DNA 2: GCGACAAGTCTGCCGCACTTTTAGGACCGGA
As for B7, the binding result with Sumo-SiwR [4] is “no binding”.

B8: DNA fork mimic (dsDNA)
DNA 1: CGTCAGTCCAGTATCCGACGACTG
DNA 2: CAGTCGTCGGATTGACCTGACTGC
As to B8, in the series with Sumo-SiwR [5] (label: 5'-FAM on strand 1, fork 1:2, 12 bp duplex with 12-nt 5' tail (strand 1) and 12-nt 3' tail (strand 2)), the Kd was 0.898 µM.

B9: msmeg_1357-56 promoter (dsDNA)
DNA 1: TGACCCACCCTGACAGGCATATAGGACAGTTCCGGTCCTAAAAGTGCGGCAGACTTGTCG
DNA 2: CGACAAGTCTGCCGCACTTTTAGGACCGGAACTGTCCTATATGCCTGTCAGGGTGGGTCA
As to B9, the binding result in the series with Sumo-SiwR R204A-R207A [8] is listed as “binds”. The Kd with Sumo-SiwR [9] was 0.651 µM.
